For assay [1], the target named is T1, recombinant E. coli-expressed human IL-4 (human, UniProt P05112 25-153).
T1 construct: made and purified at GSK; also called Interleukin-4; rhIL-4
T1 sequence: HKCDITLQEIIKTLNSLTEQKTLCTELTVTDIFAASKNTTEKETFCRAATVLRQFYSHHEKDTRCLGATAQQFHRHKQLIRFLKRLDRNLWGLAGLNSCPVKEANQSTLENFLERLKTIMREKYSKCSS
The assay can be described thus: SPR exp 1.

Assay [2] has as its target T2, recombinant E. coli-expressed human IL-13 (human, UniProt P35225 35-146).
T2 construct: made and purified at GSK; also called Interleukin-13; rhIL-13
As to the kind of experiment: SPR exp 1.

Assay [3] concerns the target T1, recombinant E. coli-expressed human IL-4. As to the kind of experiment: SPR.
The target of assay [4] is T2, recombinant E. coli-expressed human …. The assay can be described thus: SPR.

B1: PascoH-ELQLE-474 (bispecific antibody, human IgG1, kappa)
heavy: not shown
light: DIVLTQSPSSLSASVGDRVTITCKASQSVDYDGDSYMNWYQQKPGKAPKLLIYAASNLESGIPSRFSGSGSGTDFTFTISSLQPEDIATYYCQQSNEDPPTFGQGTKVEIKRTVAAPSVFIFPPSDEQLKSGTASVVCLLNNFYPREAKVQWKVDNALQSGNSQESVTEQDSKDSTYSLSSTLTLSKADYEKHKVYACEVTHQGLSSPVTKSFNRGEC
Regarding B1, in assay [1], the equilibrium dissociation constant (Kd) (in general, the free concentration of one partner at which half of the binding sites on the other are occupied at equilibrium, for simple one-to-one binding) stood at 0.02 nM; the off-rate (koff) (commonly the rate constant with which the complex falls apart) came out at 0.00011 s⁻¹; the on-rate (kon) – broadly, the second-order rate constant of association – amounted to 5.1e+06 M⁻¹ s⁻¹. For the same molecule, in assay [2], the Kd was 1.8 nM, the koff came out at 0.00062 s⁻¹ and the kon turned out to be 340000 M⁻¹ s⁻¹.

B2: 586H-147 (bispecific antibody, human IgG1, kappa)
heavy: not shown
light: DIVMTQSPLSLPVTPGEPASISCRSSQNIVHINGNTYLEWYLQKPGQSPRLLIYKISDRFSGVPDRFSGSGSGTDFTLKISRVEADDVGIYYCFQGSHVPWTFGQGTKLEIKRTVAAPSVFIFPPSDEQLKSGTASVVCLLNNFYPREAKVQWKVDNALQSGNSQESVTEQDSKDSTYSLSSTLTLSKADYEKHKVYACEVTHQGLSSPVTKSFNRGEC
B2: in assay [3], the dissociation constant (Kd) worked out at 345 nM, the off-rate (koff) was found to be 0.00118 s⁻¹ and the kon is 3420 M⁻¹ s⁻¹. Further, the dissociation constant (Kd) in assay [4] is 0.46 nM.

B3: 586H-G4S-147 (bispecific antibody, human IgG1, kappa)
heavy: not shown
light: DIVMTQSPLSLPVTPGEPASISCRSSQNIVHINGNTYLEWYLQKPGQSPRLLIYKISDRFSGVPDRFSGSGSGTDFTLKISRVEADDVGIYYCFQGSHVPWTFGQGTKLEIKRTVAAPSVFIFPPSDEQLKSGTASVVCLLNNFYPREAKVQWKVDNALQSGNSQESVTEQDSKDSTYSLSSTLTLSKADYEKHKVYACEVTHQGLSSPVTKSFNRGEC
With B3, in assay [3], the Kd is 108 nM, the off-rate (koff) stood at 0.000457 s⁻¹ and the association rate constant (kon) was 4210 M⁻¹ s⁻¹. Also, the Kd in assay [4] came to 0.45 nM.

B4: 586H (antibody, human IgG1, kappa)
heavy: not shown
light: DIVMTQSPLSLPVTPGEPASISCRSSQNIVHINGNTYLEWYLQKPGQSPRLLIYKISDRFSGVPDRFSGSGSGTDFTLKISRVEADDVGIYYCFQGSHVPWTFGQGTKLEIKRTVAAPSVFIFPPSDEQLKSGTASVVCLLNNFYPREAKVQWKVDNALQSGNSQESVTEQDSKDSTYSLSSTLTLSKADYEKHKVYACEVTHQGLSSPVTKSFNRGEC
notes: no dAb; heavy chain ends in GS
B4: in assay [3], the binding result is on record as “no binding (tested: 512 nM top concentration)”. The equilibrium dissociation constant (Kd) in assay [4] came out at 0.44 nM.

B5: 586H-ELQLE (antibody, human IgG1, kappa)
heavy: not shown
light: DIVMTQSPLSLPVTPGEPASISCRSSQNIVHINGNTYLEWYLQKPGQSPRLLIYKISDRFSGVPDRFSGSGSGTDFTLKISRVEADDVGIYYCFQGSHVPWTFGQGTKLEIKRTVAAPSVFIFPPSDEQLKSGTASVVCLLNNFYPREAKVQWKVDNALQSGNSQESVTEQDSKDSTYSLSSTLTLSKADYEKHKVYACEVTHQGLSSPVTKSFNRGEC
notes: no dAb; linker only
With B5, the binding result in assay [3] is given as “no binding (tested: 512 nM top concentration)”. Moreover, in assay [4], the dissociation constant Kd was 0.47 nM.

B6: 586H-ASTKG (antibody, human IgG1, kappa)
heavy: not shown
light: DIVMTQSPLSLPVTPGEPASISCRSSQNIVHINGNTYLEWYLQKPGQSPRLLIYKISDRFSGVPDRFSGSGSGTDFTLKISRVEADDVGIYYCFQGSHVPWTFGQGTKLEIKRTVAAPSVFIFPPSDEQLKSGTASVVCLLNNFYPREAKVQWKVDNALQSGNSQESVTEQDSKDSTYSLSSTLTLSKADYEKHKVYACEVTHQGLSSPVTKSFNRGEC
notes: no dAb; linker only
For B6, the binding result in assay [3] is “no binding (tested: 512 nM top concentration)”. Besides, the Kd in assay [4] is 0.32 nM.

B7: 586H-ASTKG-147 (bispecific antibody, human IgG1, kappa)
heavy: not shown
light: DIVMTQSPLSLPVTPGEPASISCRSSQNIVHINGNTYLEWYLQKPGQSPRLLIYKISDRFSGVPDRFSGSGSGTDFTLKISRVEADDVGIYYCFQGSHVPWTFGQGTKLEIKRTVAAPSVFIFPPSDEQLKSGTASVVCLLNNFYPREAKVQWKVDNALQSGNSQESVTEQDSKDSTYSLSSTLTLSKADYEKHKVYACEVTHQGLSSPVTKSFNRGEC
Turning to B7, in assay [3], the Kd is 18.8 nM, the koff came to 0.00069 s⁻¹ and the on-rate (kon) stood at 36700 M⁻¹ s⁻¹. In addition, the equilibrium dissociation constant (Kd) in assay [4] was 0.44 nM.

B8: 586H-EPKSC-147 (bispecific antibody, human IgG1, kappa)
heavy: not shown
light: DIVMTQSPLSLPVTPGEPASISCRSSQNIVHINGNTYLEWYLQKPGQSPRLLIYKISDRFSGVPDRFSGSGSGTDFTLKISRVEADDVGIYYCFQGSHVPWTFGQGTKLEIKRTVAAPSVFIFPPSDEQLKSGTASVVCLLNNFYPREAKVQWKVDNALQSGNSQESVTEQDSKDSTYSLSSTLTLSKADYEKHKVYACEVTHQGLSSPVTKSFNRGEC
For B8, in assay [3], the Kd is 26.4 nM, the koff was 0.000671 s⁻¹ and the kon was determined as 25400 M⁻¹ s⁻¹. In addition, the Kd in assay [4] was 0.46 nM.

B9: 586H-EPKSC (antibody, human IgG1, kappa)
heavy: not shown
light: DIVMTQSPLSLPVTPGEPASISCRSSQNIVHINGNTYLEWYLQKPGQSPRLLIYKISDRFSGVPDRFSGSGSGTDFTLKISRVEADDVGIYYCFQGSHVPWTFGQGTKLEIKRTVAAPSVFIFPPSDEQLKSGTASVVCLLNNFYPREAKVQWKVDNALQSGNSQESVTEQDSKDSTYSLSSTLTLSKADYEKHKVYACEVTHQGLSSPVTKSFNRGEC
As for B9, the binding result in assay [3] is recorded as “no binding (tested: 512 nM top concentration)”. Also, the dissociation constant (Kd) in assay [4] turned out to be 0.45 nM.

B10: 586H-EPKSC-154 (bispecific antibody, human IgG1, kappa)
heavy: not shown
light: DIVMTQSPLSLPVTPGEPASISCRSSQNIVHINGNTYLEWYLQKPGQSPRLLIYKISDRFSGVPDRFSGSGSGTDFTLKISRVEADDVGIYYCFQGSHVPWTFGQGTKLEIKRTVAAPSVFIFPPSDEQLKSGTASVVCLLNNFYPREAKVQWKVDNALQSGNSQESVTEQDSKDSTYSLSSTLTLSKADYEKHKVYACEVTHQGLSSPVTKSFNRGEC
With B10, in assay [3], the dissociation constant Kd came out at 18.8 nM, the koff is 0.00057 s⁻¹ and the kon was 30300 M⁻¹ s⁻¹. In assay [4], the Kd turned out to be 0.42 nM.

B11: 586H-154 (bispecific antibody, human IgG1, kappa)
heavy: not shown
light: DIVMTQSPLSLPVTPGEPASISCRSSQNIVHINGNTYLEWYLQKPGQSPRLLIYKISDRFSGVPDRFSGSGSGTDFTLKISRVEADDVGIYYCFQGSHVPWTFGQGTKLEIKRTVAAPSVFIFPPSDEQLKSGTASVVCLLNNFYPREAKVQWKVDNALQSGNSQESVTEQDSKDSTYSLSSTLTLSKADYEKHKVYACEVTHQGLSSPVTKSFNRGEC
As for B11, in assay [3], the Kd stood at 285 nM, the koff stood at 0.00174 s⁻¹ and the association rate constant (kon) was found to be 6100 M⁻¹ s⁻¹. In assay [4], the Kd came to 0.46 nM.

B12: 586H-G4S-154 (bispecific antibody, human IgG1, kappa)
heavy: not shown
light: DIVMTQSPLSLPVTPGEPASISCRSSQNIVHINGNTYLEWYLQKPGQSPRLLIYKISDRFSGVPDRFSGSGSGTDFTLKISRVEADDVGIYYCFQGSHVPWTFGQGTKLEIKRTVAAPSVFIFPPSDEQLKSGTASVVCLLNNFYPREAKVQWKVDNALQSGNSQESVTEQDSKDSTYSLSSTLTLSKADYEKHKVYACEVTHQGLSSPVTKSFNRGEC
In the case of B12, in assay [3], the dissociation constant (Kd) was 138 nM, the koff turned out to be 0.000685 s⁻¹ and the association rate constant (kon) came out at 5000 M⁻¹ s⁻¹. Further, the Kd in assay [4] came out at 0.37 nM.

B13: 586H-G4S-25 (bispecific antibody, human IgG1, kappa)
heavy: not shown
light: DIVMTQSPLSLPVTPGEPASISCRSSQNIVHINGNTYLEWYLQKPGQSPRLLIYKISDRFSGVPDRFSGSGSGTDFTLKISRVEADDVGIYYCFQGSHVPWTFGQGTKLEIKRTVAAPSVFIFPPSDEQLKSGTASVVCLLNNFYPREAKVQWKVDNALQSGNSQESVTEQDSKDSTYSLSSTLTLSKADYEKHKVYACEVTHQGLSSPVTKSFNRGEC
In the case of B13, in assay [3], the Kd was found to be 151 nM, the off-rate (koff) stood at 0.000954 s⁻¹ and the association rate constant (kon) was 6300 M⁻¹ s⁻¹. The dissociation constant (Kd) in assay [4] was determined as 0.41 nM.

B14: 586H-25 (bispecific antibody, human IgG1, kappa)
heavy: not shown
light: DIVMTQSPLSLPVTPGEPASISCRSSQNIVHINGNTYLEWYLQKPGQSPRLLIYKISDRFSGVPDRFSGSGSGTDFTLKISRVEADDVGIYYCFQGSHVPWTFGQGTKLEIKRTVAAPSVFIFPPSDEQLKSGTASVVCLLNNFYPREAKVQWKVDNALQSGNSQESVTEQDSKDSTYSLSSTLTLSKADYEKHKVYACEVTHQGLSSPVTKSFNRGEC
As to B14, in assay [3], the dissociation constant Kd was 67 nM, the koff was determined as 0.000411 s⁻¹ and the on-rate (kon) stood at 6130 M⁻¹ s⁻¹. Further, in assay [4], the dissociation constant Kd is 0.39 nM.

B15: 586H-EPKSC-25 (bispecific antibody, human IgG1, kappa)
heavy: not shown
light: DIVMTQSPLSLPVTPGEPASISCRSSQNIVHINGNTYLEWYLQKPGQSPRLLIYKISDRFSGVPDRFSGSGSGTDFTLKISRVEADDVGIYYCFQGSHVPWTFGQGTKLEIKRTVAAPSVFIFPPSDEQLKSGTASVVCLLNNFYPREAKVQWKVDNALQSGNSQESVTEQDSKDSTYSLSSTLTLSKADYEKHKVYACEVTHQGLSSPVTKSFNRGEC
For B15, in assay [3], the dissociation constant (Kd) came out at 29.6 nM, the koff was 0.00142 s⁻¹ and the kon is 47900 M⁻¹ s⁻¹. Moreover, in assay [4], the dissociation constant (Kd) was 0.55 nM.

B16: 586H-ASTKG-25 (bispecific antibody, human IgG1, kappa)
heavy: not shown
light: DIVMTQSPLSLPVTPGEPASISCRSSQNIVHINGNTYLEWYLQKPGQSPRLLIYKISDRFSGVPDRFSGSGSGTDFTLKISRVEADDVGIYYCFQGSHVPWTFGQGTKLEIKRTVAAPSVFIFPPSDEQLKSGTASVVCLLNNFYPREAKVQWKVDNALQSGNSQESVTEQDSKDSTYSLSSTLTLSKADYEKHKVYACEVTHQGLSSPVTKSFNRGEC
In the case of B16, the Kd in assay [3] was found to be 21.8 nM; in assay [4] it was 0.54 nM. Further, in assay [3], the koff is 0.0012 s⁻¹.

B17: 586H-ASTKG-154 (bispecific antibody, human IgG1, kappa)
heavy: not shown
light: DIVMTQSPLSLPVTPGEPASISCRSSQNIVHINGNTYLEWYLQKPGQSPRLLIYKISDRFSGVPDRFSGSGSGTDFTLKISRVEADDVGIYYCFQGSHVPWTFGQGTKLEIKRTVAAPSVFIFPPSDEQLKSGTASVVCLLNNFYPREAKVQWKVDNALQSGNSQESVTEQDSKDSTYSLSSTLTLSKADYEKHKVYACEVTHQGLSSPVTKSFNRGEC
As to B17, in assay [3], the Kd amounted to 8.7 nM, the koff was found to be 0.000284 s⁻¹ and the association rate constant (kon) amounted to 32600 M⁻¹ s⁻¹. Besides, in assay [4], the dissociation constant (Kd) turned out to be 0.44 nM.

These data come from patent US20110008345A1 (GlaxoSmithKline, published 2011).
